Measurements reported in patent publication US20260166185A1 (Y MABS THERAPEUTICS, published 2026).

Legend:
bio-huCD38 [1] = target: T1, bio-huCD38 (human (hu), UniProt P28907 43-300, biotinylated (bio-), site not stated); assay: SPR, antibody captured on chip, antigen as analyte 200-6.25 nM
Procedure: (§1) SPR analysis was performed on a Biocore 8K+, using a CFJB0944 CM5 sensor chip for immobilization and a SPR running buffer 1×HBS-EP+pH 7.4 (Cytiva, cat no. BR100669) according to the manufacturer's instructions.
In the first part of this example the antibody was immobilized on the chip and the antigen dissolved in the SPR running buffer flowed over the chip.

bio-huCD38 [2] = target: T1, bio-huCD38; assay: SPR, antigen immobilized, antibody as analyte 25-1.6 nM
Procedure: as §1
(§2) In the second part of this example, antigen was immobilized on the chip and antibody dissolved in the SPR running buffer flowed over the chip.

CD38 on Daudi cells = target: T2, CD38 on Daudi cells (UniProt P28907 1-300, limits assumed); assay: titration binding FACS on Daudi cells
T2 construct: whole, on cells
Procedure: Subsequently the EC50 of antibodies samples was determined by titration binding FACS on Daudi cells (for CD38 binding evaluation), on THP-1 cells (for CD33 binding evaluation), on A-431 cells (for EGFR binding evaluation), on MKN-45 cells (for CEACAMS binding evaluation) and on HEK293T (for CD276 binding evaluation). Jurkat E6-1 or HEK293T cell lines were used as negative control, as applicable.

bio-huCD38 [3] = target: T1, bio-huCD38; assay: SPR (Biacore 8K+), immobilized antigen
Bio-huHER2/Erb2 = Bio-huHER2/Erb2 (human (hu), UniProt P04626 23-652, biotinylated (bio-), site not stated); assay: SPR (Biacore 8K+), immobilized antigen, 25.0-1.6 nM
bio-huCD38 [4] = target: T1, bio-huCD38; assay: as above
bio-huCD38 [5] = target: T1, bio-huCD38; assay: SPR, antigen immobilized, antibody as analyte 100-6.25 nM
Procedure: as §1, §2

bio-huCD38 [6] = target: T1, bio-huCD38; assay: SPR, antigen immobilized, antibody as analyte 50-3.1 nM
Procedure: as §1, §2

B1: CD38-DOTAM(Fab)-p53 (bispecific antibody)
light: DVQLQESGGGLVQAGGSLRLSCTGSGRTFRNYPMAWFRQAPGKEREFVAGITWVGASTLYADFAKGRFTISRDNAKNTVYLQMNSLKPEDTAVYSCAAGRGIVAGRIPAEYADWGQGTQVTVSSGGGGSGGGGSGGGGSGGGGGSDIQMTQSPSSLSASVGDRVTITCQSSHSVYSDNDLAWYQQKPGKAPKLLIYQASKLASGVPSRFSGSGSGTDFTLTISSLQPEDFATYYCLGGYDDESDTYGFGGGTKVEIKRTVAAPSVFIFPPSDEQLKSGTASVVCLLNNFYPREAKVQWKVDNALQSGNSQESVTEQDSKDSTYSLSSTLTLSKADYEKHKVYACEVTHQGLSSPVTKSFNRGEC
heavy: VTLKESGPVLVKPTETLTLTCTVSGFSLSTYSMSWIRQPPGKALEWLGFIGSRGDTYYASWAKGRLTISKDTSKSQVVLTMTNMDPVDTATYYCARERDPYGGGAYPPHLWGRGTLVTVSSASTKGPSVFPLAPSSKSTSGGTAALGCLVKDYFPEPVTVSWNSGALTSGVHTFPAVLQSSGLYSLSSVVTVPSSSLGTQTYICNVNHKPSNTKVDKKVEPKSCGGGGSGGGGSKPLDGEYFTLQIRGRERFEMFRELNEALELKDAQAGKEPGGS
notes: Tetramerizes through p53 depending on concentration; also called YM00006; molecule 5
bio-huCD38 [1]
  Kd: 2090 pM
  koff: 7.86e-05 s⁻¹
  kon: 37600 M⁻¹ s⁻¹
bio-huCD38 [2]
  Kd: 936 pM
  koff: 1.63e-05 s⁻¹
  kon: 17400 M⁻¹ s⁻¹
CD38 on Daudi cells
  EC50: 590 pM

B2: CD38-DOTAM(fab)-dp53 (bispecific antibody)
light: B1 light
heavy: VTLKESGPVLVKPTETLTLTCTVSGFSLSTYSMSWIRQPPGKALEWLGFIGSRGDTYYASWAKGRLTISKDTSKSQVVLTMTNMDPVDTATYYCARERDPYGGGAYPPHLWGRGTLVTVSSASTKGPSVFPLAPSSKSTSGGTAALGCLVKDYFPEPVTVSWNSGALTSGVHTFPAVLQSSGLYSLSSVVTVPSSSLGTQTYICNVNHKPSNTKVDKKVEPKSCG
notes: No tetramerization domain; also called YM00007; molecule 6
bio-huCD38 [1]
  Kd: 12700 pM
  koff: 0.000214 s⁻¹
  kon: 16800 M⁻¹ s⁻¹
bio-huCD38 [2]
  Kd: 132 pM
  koff: 0.000189 s⁻¹
  kon: 1.43e+06 M⁻¹ s⁻¹
CD38 on Daudi cells
  EC50: 510 pM

B3: CD38-DOTA(fab)-dp53 (bispecific antibody)
light: DVQLQESGGGLVQAGGSLRLSCTGSGRTFRNYPMAWFRQAPGKEREFVAGITWVGASTLYADFAKGRFTISRDNAKNTVYLQMNSLKPEDTAVYSCAAGRGIVAGRIPAEYADWGQGTQVTVSSGGGGSGGGGSGGGGSGGGGGSQAVVIQESALTTPPGETVTLTCGSSTGAVTASNYANWVQEKPDHLFTGLIGGHNNRPPGVPARFSGSLIGDKAALTIAGTQTEDEAIYFCALWYSDHWVIGGGTRLTVLGQPKANPTVTLFPPSSEELQANKATLVCLISDFYPGAVTVAWKADGSPVKAGVETTKPSKQSNNKYAASSYLSLTPEQWKSHRSYSCQVTHEGSTVEKTVAPTECS
heavy: HVKLQESGPGLVQPSQSLSLTCTVSGFSLTDYGVHWVRQSPGKGLEWLGVIWSGGGTAYNTALISRLNIYRDNSKNQVFLEMNSLQAEDTAMYYCARRGSYPYNYFDAWGRGTTVTVSSASTKGPSVFPLAPSSKSTSGGTAALGCLVKDYFPEPVTVSWNSGALTSGVHTFPAVLQSSGLYSLSSVVTVPSSSLGTQTYICNVNHKPSNTKVDKKVEPKSCGGHHHHHH
notes: No tetramerization domain; also called YM00017; molecule 15
bio-huCD38 [3]
  Kd: 316 pM
  koff: 0.000148 s⁻¹
  kon: 470000 M⁻¹ s⁻¹
CD38 on Daudi cells
  EC50: 1070 pM

B4: HER2-DOTA(Fab)-p53 (bispecific antibody)
light: QVQLQESGGGSVQAGGSLKLTCAASGYIFNSCGMGWYRQSPGRERELVSRISGDGDTWHKESVKGRFTISQDNVKKTLYLQMNSLKPEDTAVYFCAVCYNLETYWGQGTQVTVSSGGGSGGGSGGGSGGGGSQAVVTQESALTTSPGETVTLTCRSSTGAVTTSNYANWVQEKPDHLFTGLIGGNNNRPPGVPARFSGSLIGDKAALTIAGTQTEDEAIYFCALWYSNHWVFGGGTRLTVLGQPKSSPSVTLFPPSSEELETNKATLVCTITDFYPGVVTVDWKVDGTPVTQGMETTQPSKQSNNKYMASSYLTLTARAWERHSSYSCQVTHEGHTVEKSLSPAECS
heavy: HVKLQESGPGLVQPSQSLSLTCTVSGFSLTDYGVHWVRQSPGKGLEWLGVIWSGGGTAYNTALISRLNIYRDNSKNQVFLEMNSLQAEDTAMYYCARRGSYPYNYFDAWGRGTTVTVSSASTKGPSVFPLAPSSKSTSGGTAALGCLVKDYFPEPVTVSWNSGALTSGVHTFPAVLQSSGLYSLSSVVTVPSSSLGTQTYICNVNHKPSNTKVDKKVEPKSCGGGGSGGGGSKPLDGEYFTLQIRGRERFEMFRELNEALELKDAQAGKEPGGSGGAPHHHHHH
notes: Tetramerizes through p53 depending on concentration; also called YM00018; molecule 2
Bio-huHER2/Erb2
  Kd: 58.8 pM
  koff: 2.25e-05 s⁻¹
  kon: 383000 M⁻¹ s⁻¹

B5: CD38-DOTA(Fab)-p53 (bispecific antibody)
light: B3 light
heavy: B4 heavy
notes: VHH-Fab fusion of two polypeptide chains; Tetramerizes through p53 depending on concentration; also called YM00016; molecule 1
bio-huCD38 [4]
  Kd: 25.7 pM
  koff: 1.41e-05 s⁻¹
  kon: 550000 M⁻¹ s⁻¹
CD38 on Daudi cells
  EC50: 650 pM

B6: CD38-DOTA(fab)-p53_C-Term-LC (bispecific antibody)
light: QAVVIQESALTTPPGETVTLTCGSSTGAVTASNYANWVQEKPDHLFTGLIGGHNNRPPGVPARFSGSLIGDKAALTIAGTQTEDEAIYFCALWYSDHWVIGGGTRLTVLGQPKANPTVTLFPPSSEELQANKATLVCLISDFYPGAVTVAWKADGSPVKAGVETTKPSKQSNNKYAASSYLSLTPEQWKSHRSYSCQVTHEGSTVEKTVAPTECSGGGGSGGGGSGGGGSGGGGGSDVQLQESGGGLVQAGGSLRLSCTGSGRTFRNYPMAWFRQAPGKEREFVAGITWVGASTLYADFAKGRFTISRDNAKNTVYLQMNSLKPEDTAVYSCAAGRGIVAGRIPAEYADWGQGTQVTVSS
heavy: HVKLQESGPGLVQPSQSLSLTCTVSGFSLTDYGVHWVRQSPGKGLEWLGVIWSGGGTAYNTALISRLNIYRDNSKNQVFLEMNSLQAEDTAMYYCARRGSYPYNYFDAWGRGTTVTVSSASTKGPSVFPLAPSSKSTSGGTAALGCLVKDYFPEPVTVSWNSGALTSGVHTFPAVLQSSGLYSLSSVVTVPSSSLGTQTYICNVNHKPSNTKVDKKVEPKSCGGGGSGGGGSKPLDGEYFTLQIRGRERFEMFRELNEALELKDAQAGKEPGGS
notes: VHH at the C-terminus of the light chain; also called YM00013; molecule 12
bio-huCD38 [1]
  Kd: 1280 pM
  koff: 0.000103 s⁻¹
  kon: 80700 M⁻¹ s⁻¹
bio-huCD38 [5]
  Kd: 313 pM
  koff: 1.3e-05 s⁻¹
  kon: 41500 M⁻¹ s⁻¹
CD38 on Daudi cells
  EC50: 3750 pM

B7: CD38-DOTA(fab)-p53_C-Term-HC (bispecific antibody)
light: QAVVIQESALTTPPGETVTLTCGSSTGAVTASNYANWVQEKPDHLFTGLIGGHNNRPPGVPARFSGSLIGDKAALTIAGTQTEDEAIYFCALWYSDHWVIGGGTRLTVLGQPKANPTVTLFPPSSEELQANKATLVCLISDFYPGAVTVAWKADGSPVKAGVETTKPSKQSNNKYAASSYLSLTPEQWKSHRSYSCQVTHEGSTVEKTVAPTECS
heavy: HVKLQESGPGLVQPSQSLSLTCTVSGFSLTDYGVHWVRQSPGKGLEWLGVIWSGGGTAYNTALISRLNIYRDNSKNQVFLEMNSLQAEDTAMYYCARRGSYPYNYFDAWGRGTTVTVSSASTKGPSVFPLAPSSKSTSGGTAALGCLVKDYFPEPVTVSWNSGALTSGVHTFPAVLQSSGLYSLSSVVTVPSSSLGTQTYICNVNHKPSNTKVDKKVEPKSCGGGGSGGGGSGGGGSGGGGGSDVQLQESGGGLVQAGGSLRLSCTGSGRTFRNYPMAWFRQAPGKEREFVAGITWVGASTLYADFAKGRFTISRDNAKNTVYLQMNSLKPEDTAVYSCAAGRGIVAGRIPAEYADWGQGTQVTVSSGGGGSGGGGSKPLDGEYFTLQIRGRERFEMFRELNEALELKDAQAGKEPGGS
notes: VHH C-terminal of the Fab heavy chain, before p53; also called YM00014; molecule 13
bio-huCD38 [1]
  Kd: 1330 pM
  koff: 7.59e-05 s⁻¹
  kon: 57000 M⁻¹ s⁻¹
bio-huCD38 [6]
  Kd: 163 pM
  koff: 1.52e-05 s⁻¹
  kon: 93300 M⁻¹ s⁻¹
CD38 on Daudi cells
  EC50: 2360 pM
